The target of this experiment is Staphylococcus aureus DltA (D-alanine-D-alanyl carrier protein ligase) (Staphylococcus aureus) (UniProt Q2FZW6).

Our source for the SaDltA adenylation activity (pyrophosphate detection assay, initial rates; 5 uM SaDltA with 300 uM SaDltC, 37 °C), increase over SaDltA alone values is publication PMC12838833.

Chain of UniProt Q2FZW6 (Q2FZW6 whole entry): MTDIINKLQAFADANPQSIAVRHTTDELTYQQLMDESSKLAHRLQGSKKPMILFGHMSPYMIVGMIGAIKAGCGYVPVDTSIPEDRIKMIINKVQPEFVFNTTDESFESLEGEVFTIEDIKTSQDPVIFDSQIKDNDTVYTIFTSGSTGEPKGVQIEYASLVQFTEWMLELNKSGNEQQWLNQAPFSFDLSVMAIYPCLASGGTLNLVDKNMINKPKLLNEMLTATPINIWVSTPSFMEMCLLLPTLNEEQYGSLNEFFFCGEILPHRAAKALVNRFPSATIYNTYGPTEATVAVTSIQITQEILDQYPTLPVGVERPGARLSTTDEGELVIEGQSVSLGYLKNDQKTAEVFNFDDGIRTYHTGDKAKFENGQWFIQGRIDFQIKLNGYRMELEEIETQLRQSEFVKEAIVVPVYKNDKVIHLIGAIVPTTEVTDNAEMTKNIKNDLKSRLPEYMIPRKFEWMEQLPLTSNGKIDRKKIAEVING

B1: Wild-type Staphylococcus aureus D-alanyl carrier protein DltC (natural protein)
chain: MEFREQVLNLLAEVAENDIVKENPDVEIFEEGIIDSFQTVGLLLEIQNKLDIEVSIMDFDRDEWATPNKIVEALEELR
modifications: 4'-phosphopantetheine (Ppant) on Ser36 (co-expressed with AcpS to produce Ppant-attached SaDltC)
The molecule B1 came in with a SaDltA adenylation activity (pyrophosphate detection assay, initial rates; 5 uM SaDltA with 300 uM SaDltC, 37 °C), increase over SaDltA alone of 22.3 fold.
